Test results as given in publication PMC7042235.
pKd: −log10 of the molar value.

Biological target: microtubules (polymerized porcine tubulin) (porcine) (UniProt P02550)
Assay: co-sedimentation; purified MTBDs (1-32 uM) mixed with 5 uM paclitaxel-stabilised porcine MTs; 100 mM PIPES pH 6.8, 50 mM NaCl, 2 mM MgCl2, 1 mM EGTA; 210,000 x g, 25 °C, 10 min; pellets on SDS-PAGE, densitometry, one-site curve fitting

MTBD-High, MTBD(I3101C/V3222C) (from UniProt P36022 3096-3232) (domain or fragment)
pKd: 5.32
